Laboratory results reported in patent publication US20240165282A1, “CONFORMATIONAL CONSTRAINED SOMATOSTATIN RECEPTOR 3 PEPTIDE LIGANDS AND THEIR CONJUGATES AND USES THEREOF” (STARGET PHARMA LTD., priority 2021, published 2024).
*1 amine or outer side, *2 acyl side, *3 side chain or, on linkers, in order; H or OH if unused. Bridges are numbered along the chain shown (N, C = ends). [ ]: non-standard residue; d: D form. The star is where a group is joined. DOTA = O=C(O)CN1CCN(CC(=O)O)CCN(CC(=O)*)CCN(CC(=O)O)CC1; N(2-mercaptoethyl)Gly = O=C(CN(CCS[*:3])[*:1])[*:2]; 4Amb = NCc1ccc(C(=O)O)cc1; Aoc = NCCCCCCCC(=O)O; CPT = camptothecin; GABA = NCCCC(=O)O

What was measured:
Assay in all cases: Radioligand binding, displacement of 125I-Tyr11-SRIF-14
[1] = target: T1, hSSTR-4 (Homo sapiens, UniProt P31391); conditions: hSSTR-4
T1 construct: host or cells: Chem-1 (Rat ChemiSCREEN) cells, membrane preparation
Source text: (§1) The binding to human cloned receptors SSTR-1, or SSTR-2 or SSTR-3 evaluated in stable and selective transfected CHO (Chinese Hamster Ovary) cells and binding to STSR-4 and SSTR-5 in stable and selective transfected Chem-1 (Rat ChemiSCREEN) cells. […] The binding reactions were filtered, the filters were washed, and the bound radioactivity was counted using a gamma counter.
(§2) The following table depicts the conditions of binding assay to each of the somatostatin receptors used for the evaluations of binding affinities of the tested peptides. All assays were performed by quantitation method of radioligand binding under 25° C. The vehicle was 1% DMSO, the incubation buffer was 25 mM HEPES, pH 7.4, 5 mM MgCl2, 1 mM CaCl2, 0.1% BSA. […] The significance criteria were >50% of max inhibition. […] This specific binding data used for calculation of Bmax values which is the concentration of each of the expressed cloned receptor in its transfected cell system.
(§3) The Results of IC50 values were determined by a non-linear, least squares regression analysis using MathIQ™ (ID Business Solutions Ltd., UK). […] The Hill coefficient (nH), defining the slope of the competitive binding curve, was calculated using MathIQ™.

[2] = target: SSTR5 (Homo sapiens, UniProt P35346); parameters: host or cells: Chem-1 (Rat ChemiSCREEN) cells, membrane preparation; conditions: hSSTR-5
Source text: as §1, §2, §3

[3] = target: SSTR1 (Homo sapiens, UniProt P30872); parameters: host or cells: CHO (Chinese Hamster Ovary) cells, membrane preparation; conditions: hSSTR-1
Source text: as §1, §2, §3

[4] = target: SSTR2 (Homo sapiens, UniProt P30874); parameters: host or cells: CHO (Chinese Hamster Ovary) cells, membrane preparation; conditions: hSSTR-2
Source text: as §1, §2, §3

[5] = target: SSTR3 (Homo sapiens, UniProt P32745); parameters: host or cells: CHO (Chinese Hamster Ovary) cells, membrane preparation; conditions: for % displacement of [^125I] Tyr^11-SRIF-14: hSSTR-3; for affinity and selectivity to SSTR3 (in words): binding data
Source text: as §1, §2, §3

Chain of SSTR1 (P30872 whole entry): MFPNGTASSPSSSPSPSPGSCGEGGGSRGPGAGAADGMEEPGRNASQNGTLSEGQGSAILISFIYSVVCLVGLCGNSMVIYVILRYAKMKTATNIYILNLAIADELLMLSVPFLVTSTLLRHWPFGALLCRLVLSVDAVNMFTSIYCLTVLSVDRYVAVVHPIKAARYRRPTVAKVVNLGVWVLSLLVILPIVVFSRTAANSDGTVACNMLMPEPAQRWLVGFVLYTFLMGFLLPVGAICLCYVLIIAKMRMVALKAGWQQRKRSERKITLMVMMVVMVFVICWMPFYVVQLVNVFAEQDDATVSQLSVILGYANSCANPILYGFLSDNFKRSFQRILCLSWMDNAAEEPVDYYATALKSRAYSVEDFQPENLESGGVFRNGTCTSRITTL
Chain of SSTR2 (P30874 whole entry): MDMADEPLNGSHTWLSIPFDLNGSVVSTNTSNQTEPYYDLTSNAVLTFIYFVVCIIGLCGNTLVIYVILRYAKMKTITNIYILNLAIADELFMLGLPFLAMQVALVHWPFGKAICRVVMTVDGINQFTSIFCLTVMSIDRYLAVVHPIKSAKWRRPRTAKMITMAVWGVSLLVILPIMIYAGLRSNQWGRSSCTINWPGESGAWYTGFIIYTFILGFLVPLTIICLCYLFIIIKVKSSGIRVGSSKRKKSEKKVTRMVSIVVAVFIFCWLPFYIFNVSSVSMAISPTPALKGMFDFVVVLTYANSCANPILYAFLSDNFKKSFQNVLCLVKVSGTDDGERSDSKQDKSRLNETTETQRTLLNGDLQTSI
Chain of SSTR3 (P32745 whole entry): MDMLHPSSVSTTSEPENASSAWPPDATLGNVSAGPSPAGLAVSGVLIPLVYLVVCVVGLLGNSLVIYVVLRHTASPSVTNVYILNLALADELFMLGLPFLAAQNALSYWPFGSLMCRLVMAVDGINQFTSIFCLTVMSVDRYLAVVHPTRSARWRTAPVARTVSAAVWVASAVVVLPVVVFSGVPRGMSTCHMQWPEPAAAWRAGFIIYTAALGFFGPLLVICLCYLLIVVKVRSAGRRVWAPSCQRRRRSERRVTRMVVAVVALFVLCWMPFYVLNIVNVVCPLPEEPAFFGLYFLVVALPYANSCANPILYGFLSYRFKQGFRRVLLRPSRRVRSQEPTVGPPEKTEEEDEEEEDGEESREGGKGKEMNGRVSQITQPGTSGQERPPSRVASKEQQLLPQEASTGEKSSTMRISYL
T1 sequence (P31391 whole entry): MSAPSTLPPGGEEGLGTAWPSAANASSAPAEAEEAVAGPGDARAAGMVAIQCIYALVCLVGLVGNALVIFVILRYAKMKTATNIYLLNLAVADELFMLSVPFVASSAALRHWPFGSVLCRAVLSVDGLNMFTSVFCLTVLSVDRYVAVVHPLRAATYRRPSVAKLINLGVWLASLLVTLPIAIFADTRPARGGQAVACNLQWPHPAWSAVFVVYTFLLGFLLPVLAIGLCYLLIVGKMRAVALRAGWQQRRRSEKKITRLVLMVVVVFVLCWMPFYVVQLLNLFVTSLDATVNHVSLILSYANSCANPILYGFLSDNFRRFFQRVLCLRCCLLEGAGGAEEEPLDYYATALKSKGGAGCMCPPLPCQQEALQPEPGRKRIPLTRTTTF
Chain of SSTR5 (P35346 whole entry): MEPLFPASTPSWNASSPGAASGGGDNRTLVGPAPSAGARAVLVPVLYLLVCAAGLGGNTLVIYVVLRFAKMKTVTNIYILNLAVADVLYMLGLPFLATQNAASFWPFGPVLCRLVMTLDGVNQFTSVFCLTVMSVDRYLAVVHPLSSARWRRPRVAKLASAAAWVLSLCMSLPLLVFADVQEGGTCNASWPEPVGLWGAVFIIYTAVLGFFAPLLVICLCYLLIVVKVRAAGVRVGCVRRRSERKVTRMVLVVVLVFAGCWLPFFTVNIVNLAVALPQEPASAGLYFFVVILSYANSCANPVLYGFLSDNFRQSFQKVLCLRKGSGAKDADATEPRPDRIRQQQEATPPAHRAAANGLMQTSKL

Substance | % displacement of [^125I] Tyr^11-SRIF-14 ([1]; at 1 nM (in brackets)) | % displacement of [^125I] Tyr^11-SRIF-14 ([1]; at 10 nM) | % displacement of [^125I] Tyr^11-SRIF-14 ([2]; at 1 nM (in brackets)) | % displacement of [^125I] Tyr^11-SRIF-14 ([2]; at 10 nM) | % displacement of [^125I] Tyr^11-SRIF-14 ([3]; at 1 nM (in brackets)) [%] | % displacement of [^125I] Tyr^11-SRIF-14 ([3]; at 10 nM) [%] | % displacement of [^125I] Tyr^11-SRIF-14 ([4]; at 1 nM (in brackets)) | % displacement of [^125I] Tyr^11-SRIF-14 ([4]; at 10 nM) | % displacement of [^125I] Tyr^11-SRIF-14 ([5]; at 1 nM (in brackets)) [%] | % displacement of [^125I] Tyr^11-SRIF-14 ([5]; at 10 nM) [%] | affinity and selectivity to SSTR3 (in words) [5] | affinity to SSTR3 [5] [nM]
DOTA-4-Amb-D-Phe^1-Arg^2-Cys^3-Phe^4-D-Trp^5-Lys^6-Thr^7-Phe^8-NTEG^9-NH2 (cyclo 3-9) ({DOTA-4Amb}-[dF]RCF[dW]KTF[N(2-mercaptoethyl)Gly]-NH2; disulfide 3-9) [SEQ ID NO: 18] | 0% | 8% | 0(0) % | 0(0) % | 0 | 4 | 0(0) % | 0(0) % | 49 | 85 | – | –
DOTA-GABA-D-Phe^1-Arg^2-Cys^3-Phe^4-D-Trp^5-Lys^6-Thr^7-Phe^8-NTEG^9-NH2 (cyclo 3-9) ({DOTA-GABA}-[dF]RCF[dW]KTF[N(2-mercaptoethyl)Gly]-NH2; disulfide 3-9) [SEQ ID NO: 7] | – | – | – | – | – | – | – | – | – | – | increased the affinity and selectivity | –
DOTA-D-Phe^1-Orn^2-Cys^3-Phe^4-D-Trp^5-Lys^6-Thr^7-Phe^8-NTEG^9-NH2 cyclo 3-9 [SEQ ID NO: 21] | 9(9) % | 9(9) % | 0(0) % | 0(0) % | 23 | 22 | 0% | 2% | 59 | 93 | did not interfere with the affinity and selectivity to SSTR3 | –
CPT-8-aminooctanoic acid-D-Phe^1-Arg^2-Cys^3-Phe^4-D-Trp^5-Lys^6-Thr^7-Phe^8-NTEG^9-NH2 (cyclo 3-9) ({CPT-Aoc}-[dF]RCF[dW]KTF[N(2-mercaptoethyl)Gly]-NH2; disulfide 3-9) [SEQ ID NO: 27] | 0(0) % | 0(0) % | 0(0) % | 0(0) % | 0 | 3 | 0(0) % | 0(0) % | 12 | 51 | the same selectivity to SSTR3 as SEQ ID NO: 1 | ≤ 10
DOTA-D-Phe^1-Lys^2-Cys^3-Tyr^4-D-Trp^5-Lys^6-Thr^7-Phe^8-NTEG^9 -NH2 (cyclo 3-9) ({DOTA}-[dF]KCY[dW]KTF[N(2-mercaptoethyl)Gly]-NH2; disulfide 3-9; SMILES C[C@@H](O)[C@@H]1NC(=O)[C@H](CCCCN)NC(=O)[C@@H](Cc2c[nH]c3ccccc23)NC(=O)[C@H](Cc2ccc(O)cc2)NC(=O)[C@@H](NC(=O)[C@H](CCCCN)NC(=O)[C@@H](Cc2ccccc2)NC(=O)CN2CCN(CC(=O)O)CCN(CC(=O)O)CCN(CC(=O)O)CC2)CSSCCN(CC(N)=O)C(=O)[C@H](Cc2ccccc2)NC1=O) [SEQ ID NO: 24] | – | – | – | – | – | – | – | – | 66 | 88 | – | –
